Laboratory results: patent US20040157314A1, “Inhibitors of Staphylococcus aureus primary sigma factor and uses thereof” (priority 2003, published 2004)

Tests used:
[1] = system: S. aureus RN4220; test: Growth kinetics assay (CFU) of S. aureus clones expressing phage ORF under arsenite-inducible promoter; assay type: cell-based, Staphylococcus aureus
From the text: Bacteriophage ORFs encoded in phage G1 genome were identified as follows: beginning at the first nucleotide, the phage G 1 genome sequence is scanned for a start codon. When one is identified, the number of in-frame codons is counted until a termination codon is reached. A minimum threshold of 33 codons defines this bounded sequence as an ORF. This procedure is repeated, starting at the next nucleotide following the last stop codon, until the end of the phage sequence is reached. The scan is performed in an identical manner on all three reading frames of both DNA strands of the phage sequence, in order to identify all the putative ORFs. Putative genes are then identified based on the presence of a Shine-Dalgarno sequence within the 15 nucleotides upstream of the start codon. The E. coli-S. aureus shuttle vector pTOO21 (Tauriainen et al., Appl. Environ. Microbiol. (1997) 63:4456-64), containing the arsenite-inducible ars promoter and the arsR gene, was modified with an optimal Shine-Dalgarno sequence (AGGAGG) followed by a multiple cloning site (MCS). DNA encoding individual phage ORFs was amplified by PCR from phage genomic DNA and cloned into the MCS of the modified vector. […]

[2] = target: holoenzyme reconstituted from STAAU_R12 and E. coli core RNA polymerase (Staphylococcus aureus, UniProt P0A0J0); test: In vitro transcription assay (polyacrylamide/urea gel), reconstituted holoenzyme; assay type: biochemical; details: pre-incubation with STAAU_R12, 0 to 2 μM, FIG. 6B
Chain of holoenzyme reconstituted from STAAU_R12 and E. coli core RNA polymerase (P0A0J0 whole entry): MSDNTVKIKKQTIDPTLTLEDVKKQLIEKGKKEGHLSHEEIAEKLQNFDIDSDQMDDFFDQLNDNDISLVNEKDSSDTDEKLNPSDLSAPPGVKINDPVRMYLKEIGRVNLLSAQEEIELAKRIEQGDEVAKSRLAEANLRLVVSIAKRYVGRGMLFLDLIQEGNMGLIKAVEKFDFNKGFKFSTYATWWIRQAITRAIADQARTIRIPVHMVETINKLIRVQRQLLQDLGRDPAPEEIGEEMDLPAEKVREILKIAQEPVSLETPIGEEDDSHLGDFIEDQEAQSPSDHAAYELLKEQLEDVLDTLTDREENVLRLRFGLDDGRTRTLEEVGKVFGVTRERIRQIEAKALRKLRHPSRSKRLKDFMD
Description: (§1) The E. coli holoenzyme (Epicentre) was used at 10 nM as a positive control for monitoring transcription efficiency. Assays were done with increasing amounts (0 to 500 nM) of STAAU_R12 and 25 nM of E. coli core in a total volume of 25 μl containing 40 mM Tris-acetate pH 7.9, 100 mM NaCl, 5 mM MgCl2, 1 mM DTT, 0.1 mg/ml BSA, 0.5 mM of each ATP, GTP, CTP, 0.25 mM UTP, 5 μCi [^32P] UTP (3000 Ci/mmole), 2 units of RNasin (Promega) and 40 ng of pB6 template DNA (Lutz and Bujard, Nuc. Acid Res. (1997) 6:1203-10) harboring λPL promoter, kanamycin gene and the Col E1 RNA-1. […] Reactions were incubated at 37° C. for 15 min and stopped by addition of 5 μl of loading buffer (95% formamide, 20 mM EDTA and 0.05% of each xylene cyanol and bromophenol blue). Samples were boiled for 5 min and electrophoresed on a 6% polyacrylamide/8 M urea gel.

[3] = target: T1, reconstituted holoenzyme from HK-STAAU_R12 and S. aureus core enzyme (Staphylococcus aureus, UniProt P0A0J0); test: In vitro transcription and TCA precipitation assay, 96-well; assay type: biochemical; details: 10 μM, FIG. 8
T1 construct: made in house; S. aureus RN4220 transformed with pTMHB rpoA (core enzyme)
T1 sequence (P0A0J0 whole entry): as above
From the text: In order to convert this gel-based transcription assay to a 96-well high through put format, we used an in vitro transcription assay followed by a TCA precipitation step in order to separate radiolabeled nucleotides incorporated into nucleic acid from unincorporated label. Such format is convenient as it will allow rapid screening with a large collection of compounds. In this TCA precipitation assay, we reconstituted the holoenzyme from STAAU_R12 and S. aureus core enzyme instead of using the E. coli core enzyme with STAAU_R12.
The E. coli core enzyme (Epicentre) was used as a positive control for monitoring transcription efficiency. The set up of high throughput screening assay for STAAU_R12 is illustrated in FIG. 7. […] UTP (3000 Ci/mmole), 1 U of RNasin (Promega) and 40 ng of pTMSM template DNA (a pTM derivative vector). To investigate the in vitroeffectofG1ORF67 on STAAU_R12 mediated transcriptional activation, G1ORF67 and a negative control (10 μM) were added to the mixture and the reaction was incubated for 1 h at 37° C. in a 96-well PCR-plate (BD-Falcon™). […] After filtration, the wells were washed 3 times (225 μl per wash) with 10% TCA, 2 times (225 μl per wash) with 95% ethanol and then 75 μl of liquid scintillation cocktail was added and the plates were counted for 30 s on a Trilux™ Microbeta counter (Perkin Elmer-Packard).

[4] = target: STAAU_R12 with E. coli core and biotinylated λPR oligonucleotide (Staphylococcus aureus, UniProt P0A0J0); assay type: biochemical; details: 0 to 4 μM; 32 nM HK-STAAU_R12, 45 nM biotinylated DNA
Chain of STAAU_R12 with E. coli core and biotinylated λPR oligonucleotide (P0A0J0 whole entry): as above
Description: We developed a fluorescence-based high throughput assay to monitor the interaction of STAAU_R12 with its cognate DNA. […] Europium cryptate (Eu) labeled anti-Histidine was used as an energy donor and Allophycocyanin (APC) labeled streptavidin was used as an energy acceptor.
The reaction was incubated for 15 min at room temperature and then, 6 μl of a mixture of Eu-conjugated anti-Histidine (CIS International) and APC-conjugated streptavidin (Prozyme) were added to final concentrations of 3 and 15 nM, respectively. Samples were mixed and 25 μl of the mixture was transferred to a 96-well opaque plate (Molecular Devices). After 45 min incubation at room temperature, the emission at 665 nm (APC) and at 612 nm (Eu) arising from excitation as 340 nm was measured using a Tecan Ultra™ plate reader. […] A mutated version of untagged λPR oligonucleotide consisting of a substitution of the −35 region (from TTGACT in the wild type PR oligonucleotide to ACTTTG in the mutated oligonucleotide) was used as a non specific competitor. Competitors were added to the reaction mixture prior to addition of Eu and APC conjugates.

[5] = target: E. coli holoenzyme (E. coli sigma factor and E. coli core RNA polymerase) (Escherichia coli, UniProt P00579); details: pre-incubation with E. coli holoenzyme, FIG. 6C
Chain of E. coli holoenzyme (E. coli sigma factor and E. coli core RNA polymerase) (P0A8V2 whole entry): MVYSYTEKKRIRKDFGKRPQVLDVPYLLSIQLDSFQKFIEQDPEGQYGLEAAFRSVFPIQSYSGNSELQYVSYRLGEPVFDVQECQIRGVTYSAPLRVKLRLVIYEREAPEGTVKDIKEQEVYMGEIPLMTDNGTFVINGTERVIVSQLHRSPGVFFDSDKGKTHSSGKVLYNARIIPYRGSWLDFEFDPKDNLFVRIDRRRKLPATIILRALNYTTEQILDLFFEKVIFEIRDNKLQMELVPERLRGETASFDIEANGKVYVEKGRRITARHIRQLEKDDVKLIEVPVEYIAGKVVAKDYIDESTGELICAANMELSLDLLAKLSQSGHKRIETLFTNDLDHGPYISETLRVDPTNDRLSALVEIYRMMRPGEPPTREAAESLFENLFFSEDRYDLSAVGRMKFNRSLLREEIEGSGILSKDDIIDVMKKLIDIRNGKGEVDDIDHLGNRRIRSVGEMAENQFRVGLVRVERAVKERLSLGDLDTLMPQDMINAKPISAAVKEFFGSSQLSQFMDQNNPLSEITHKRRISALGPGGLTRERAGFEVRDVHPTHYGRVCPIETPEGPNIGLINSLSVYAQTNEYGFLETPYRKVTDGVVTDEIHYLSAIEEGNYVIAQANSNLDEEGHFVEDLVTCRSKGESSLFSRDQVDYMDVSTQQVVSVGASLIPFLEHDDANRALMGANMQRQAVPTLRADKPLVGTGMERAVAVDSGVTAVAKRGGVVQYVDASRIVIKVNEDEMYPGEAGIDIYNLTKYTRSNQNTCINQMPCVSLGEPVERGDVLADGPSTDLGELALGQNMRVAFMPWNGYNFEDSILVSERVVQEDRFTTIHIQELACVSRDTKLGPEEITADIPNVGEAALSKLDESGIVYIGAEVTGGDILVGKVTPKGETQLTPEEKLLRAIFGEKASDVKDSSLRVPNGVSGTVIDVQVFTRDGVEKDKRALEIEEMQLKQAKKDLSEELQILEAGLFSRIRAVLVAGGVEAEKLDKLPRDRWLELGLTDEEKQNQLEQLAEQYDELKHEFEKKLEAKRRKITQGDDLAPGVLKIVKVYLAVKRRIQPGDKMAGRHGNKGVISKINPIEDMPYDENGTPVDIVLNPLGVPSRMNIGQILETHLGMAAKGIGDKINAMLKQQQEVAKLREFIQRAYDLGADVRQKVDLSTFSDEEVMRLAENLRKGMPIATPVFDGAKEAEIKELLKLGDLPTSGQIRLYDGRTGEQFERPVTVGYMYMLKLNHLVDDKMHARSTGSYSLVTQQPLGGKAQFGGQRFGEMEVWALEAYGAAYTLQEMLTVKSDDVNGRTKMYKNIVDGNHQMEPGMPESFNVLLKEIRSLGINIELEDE
Chain of E. coli holoenzyme (E. coli sigma factor and E. coli core RNA polymerase) (P00579 whole entry): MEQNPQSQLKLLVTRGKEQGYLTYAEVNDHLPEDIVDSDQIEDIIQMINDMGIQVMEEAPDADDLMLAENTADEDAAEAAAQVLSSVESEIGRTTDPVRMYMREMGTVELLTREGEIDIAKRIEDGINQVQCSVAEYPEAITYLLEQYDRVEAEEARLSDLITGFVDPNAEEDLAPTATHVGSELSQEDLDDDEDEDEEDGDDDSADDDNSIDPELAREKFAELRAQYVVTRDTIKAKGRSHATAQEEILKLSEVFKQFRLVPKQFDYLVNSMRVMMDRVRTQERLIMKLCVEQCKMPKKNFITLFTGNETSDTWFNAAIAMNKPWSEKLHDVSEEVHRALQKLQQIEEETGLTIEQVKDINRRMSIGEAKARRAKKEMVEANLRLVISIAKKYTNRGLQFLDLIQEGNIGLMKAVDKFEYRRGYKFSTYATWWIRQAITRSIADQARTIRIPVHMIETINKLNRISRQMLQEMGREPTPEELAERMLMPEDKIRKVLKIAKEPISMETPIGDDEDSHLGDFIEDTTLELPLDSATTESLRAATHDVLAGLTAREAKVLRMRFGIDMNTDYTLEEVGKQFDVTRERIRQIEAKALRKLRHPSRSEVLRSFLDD
Chain of E. coli holoenzyme (E. coli sigma factor and E. coli core RNA polymerase) (P0A7Z4 whole entry, further chain): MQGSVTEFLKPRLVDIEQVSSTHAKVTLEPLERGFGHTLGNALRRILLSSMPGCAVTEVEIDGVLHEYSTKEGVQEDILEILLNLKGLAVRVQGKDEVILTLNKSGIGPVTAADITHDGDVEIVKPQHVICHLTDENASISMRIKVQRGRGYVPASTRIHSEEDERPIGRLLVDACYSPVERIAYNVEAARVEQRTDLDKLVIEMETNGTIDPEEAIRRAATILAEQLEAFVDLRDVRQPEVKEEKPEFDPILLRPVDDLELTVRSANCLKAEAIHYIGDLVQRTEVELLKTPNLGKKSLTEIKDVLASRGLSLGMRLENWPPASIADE
Chain of E. coli holoenzyme (E. coli sigma factor and E. coli core RNA polymerase) (P0A8T7 whole entry, further chain): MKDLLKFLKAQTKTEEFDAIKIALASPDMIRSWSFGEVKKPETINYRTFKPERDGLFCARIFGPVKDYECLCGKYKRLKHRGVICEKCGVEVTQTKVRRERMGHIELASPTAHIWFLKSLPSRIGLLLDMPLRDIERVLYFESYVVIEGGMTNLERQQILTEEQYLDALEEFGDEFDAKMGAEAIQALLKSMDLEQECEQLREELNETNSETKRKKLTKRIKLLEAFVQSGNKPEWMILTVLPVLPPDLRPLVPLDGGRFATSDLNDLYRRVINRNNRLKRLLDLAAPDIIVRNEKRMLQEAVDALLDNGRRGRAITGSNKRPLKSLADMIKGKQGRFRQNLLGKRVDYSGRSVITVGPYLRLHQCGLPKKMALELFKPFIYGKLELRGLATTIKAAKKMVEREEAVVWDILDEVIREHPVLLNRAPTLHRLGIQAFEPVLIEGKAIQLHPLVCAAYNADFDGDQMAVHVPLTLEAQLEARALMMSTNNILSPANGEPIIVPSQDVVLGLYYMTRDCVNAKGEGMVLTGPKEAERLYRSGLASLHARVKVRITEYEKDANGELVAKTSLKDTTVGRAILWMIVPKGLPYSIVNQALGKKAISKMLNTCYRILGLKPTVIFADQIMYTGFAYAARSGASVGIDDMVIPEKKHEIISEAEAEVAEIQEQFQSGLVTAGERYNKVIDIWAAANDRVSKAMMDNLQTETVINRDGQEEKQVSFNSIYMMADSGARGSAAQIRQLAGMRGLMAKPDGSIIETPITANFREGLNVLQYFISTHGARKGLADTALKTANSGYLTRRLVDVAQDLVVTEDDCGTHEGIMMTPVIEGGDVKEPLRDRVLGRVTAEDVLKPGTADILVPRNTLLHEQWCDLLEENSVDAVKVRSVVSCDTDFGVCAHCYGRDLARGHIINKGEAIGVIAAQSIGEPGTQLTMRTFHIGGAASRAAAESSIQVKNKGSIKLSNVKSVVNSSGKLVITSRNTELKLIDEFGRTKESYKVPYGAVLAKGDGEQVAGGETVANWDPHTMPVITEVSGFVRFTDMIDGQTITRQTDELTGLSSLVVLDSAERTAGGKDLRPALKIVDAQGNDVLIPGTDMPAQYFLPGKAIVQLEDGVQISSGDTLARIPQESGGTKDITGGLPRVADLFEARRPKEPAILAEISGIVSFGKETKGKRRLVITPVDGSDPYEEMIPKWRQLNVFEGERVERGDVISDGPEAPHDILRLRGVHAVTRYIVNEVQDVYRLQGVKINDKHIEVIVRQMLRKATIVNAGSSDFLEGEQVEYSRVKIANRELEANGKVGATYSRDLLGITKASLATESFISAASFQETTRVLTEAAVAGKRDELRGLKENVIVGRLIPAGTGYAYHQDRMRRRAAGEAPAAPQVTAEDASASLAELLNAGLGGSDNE
Description: as §1

B1: G1ORF67: 198 amino acids protein from S. aureus bacteriophage G1 (SEQ ID NO: 7), anti-primary sigma factor (protein)
chain: MKLKILDKDNATLNVFHRNKEHKTIDNVPTANLVDWYPLSNAYEYKLSRNGEYLELKRLRSTLPSSYGLDDNNQDIIRDNNHRCKIGYWYNPAVRKDNLKIIEKAKQYGLPIITEEYDANTVEQGFRDIGVIFQSLKTIVVTRYLEGKTEEELRIFNMKSEESQLNEALKESDFSVDLTYSDLGQIYNMLLLMKKISK
modifications: Bacteriophage G1
- number of CFU in cells expressing the ORF ([1]; S. aureus RN4220, induced with 5 μM NaAsO2, FIG. 1): significantly reduced
- type of growth inhibitory effect on S. aureus ([1]; expression of the ORF in S. aureus): bacteriostatic
- inhibition of STAAU_R12-mediated transcriptional activation [2]: dramatic inhibition
- inhibition of STAAU_R12 mediated transcriptional activation (TCA precipitation) [3]: dramatic inhibition
- reduction of the TR-FRET signal (core-dependent DNA binding of STAAU_R12) [4]: 7 fold
- effect on transcription by E. coli holoenzyme [5]: did not affect transcription
